# Data from patent publication US20250042961A1, “P53 PEPTIDOMIMETIC MACROCYCLES” (MERCK SHARP & DOHME LLC, priority 2021, published 2025).
# Bridges are numbered along the chain shown (N, C = ends). [ ]: non-standard residue; d: D form. dPhe(4-CF3) = N[C@H](Cc1ccc(C(F)(F)F)cc1)C(=O)O; dTrp(6-F) = N[C@H](Cc1c[nH]c2cc(F)ccc12)C(=O)O; R5 = C=CCCC[C@@](C)(N)C(=O)O; FAM = carboxyfluorescein
# T1: MDM4 protein (human), O15151
# T1 chain: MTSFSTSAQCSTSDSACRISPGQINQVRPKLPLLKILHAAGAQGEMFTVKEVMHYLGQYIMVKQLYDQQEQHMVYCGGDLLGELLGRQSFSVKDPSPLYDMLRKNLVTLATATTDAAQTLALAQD
# How the values were obtained:
# [1] = target: T1, MDM4 protein (human), O15151; assay: direct fluorescence anisotropy titration of MDM4 against 50 nM FAM-labeled peptide; apparent Kd, 1:1 model
# [2] = target: MDM2 (in HCT116 cells) (human), Q00987; assay: cell-based or functional assay
# [3] = target: Purified MDM2 (1-125) protein (human MDM2 1-125 sequence comprising a modified TEV cleavage site, pNIC-GST fusion) (human), Q00987; assay: competitive fluorescence anisotropy (FP) against FAM-labeled 12/1 peptide on MDM2 (1-125); apparent Kd
# Sequence of Purified MDM2 (1-125) protein (human MDM2 1-125 sequence comprising a modified TEV cleavage site, pNIC-GST fusion) (human), Q00987 (Q00987 1-125 limits assumed): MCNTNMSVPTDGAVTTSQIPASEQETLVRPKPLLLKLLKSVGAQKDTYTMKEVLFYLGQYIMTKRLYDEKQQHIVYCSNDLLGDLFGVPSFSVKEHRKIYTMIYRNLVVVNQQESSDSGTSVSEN
Binder,Kd [1] [nM],"p53 activity EC50 (µM) (0% FBS, 4 h) [2]","p53 activity EC50 (µM) (10% FBS, 16 h) [2]",Kd [3] [nM]
{FAM}-RFMDYWEGL-NH2 (also: places C-terminal amide at E7) [carboxyfluorescein (FAM)-labeled 12/1 peptide 13 (FAM-…-NH2)],4,–,–,–
"Ac-[dT][dA][dTrp(6-F)][dY][dA][R5][dPhe(4-CF3)][dE][dQ][R5][dL][dS][dA][dA][dA][dA][dA][dA][dA][dA][dA]-NH2 (staple 6-10; also: mixture of cis-trans isomers) [Acetyl-^DPMI-δ-(6-10 olefin staple) (D-K9D-Q, D-R12D-S, 9x(D-A) polypeptide tail)-NH2]",–,50,> 50,21.7
"Ac-[dT][dA][dTrp(6-F)][dY][dA][R5][dPhe(4-CF3)][dE][dQ][R5][dL][dS][dA][dA][dA][dA][dA][dA]-NH2 (staple 6-10; also: mixture of cis-trans isomers) [Acetyl-^DPMI-δ-(6-10 olefin staple) (D-K9D-Q, D-R12D-S, 6x(D-A) polypeptide tail)-NH2]",–,0.61,0.28,3.2
